Target: T1, biotinylated soluble human LDLR (sohLDLR) (human, UniProt P01130-1 22-788, biotin (biotinylated; site not stated))
T1 construct: also called biotinylated LDLR; soluble biotinylated LDLR; source: bought: SinoBiological #10231-H08H-B
Assay: BLI
Conditions: both partners purified

T1 sequence (P01130 22-788): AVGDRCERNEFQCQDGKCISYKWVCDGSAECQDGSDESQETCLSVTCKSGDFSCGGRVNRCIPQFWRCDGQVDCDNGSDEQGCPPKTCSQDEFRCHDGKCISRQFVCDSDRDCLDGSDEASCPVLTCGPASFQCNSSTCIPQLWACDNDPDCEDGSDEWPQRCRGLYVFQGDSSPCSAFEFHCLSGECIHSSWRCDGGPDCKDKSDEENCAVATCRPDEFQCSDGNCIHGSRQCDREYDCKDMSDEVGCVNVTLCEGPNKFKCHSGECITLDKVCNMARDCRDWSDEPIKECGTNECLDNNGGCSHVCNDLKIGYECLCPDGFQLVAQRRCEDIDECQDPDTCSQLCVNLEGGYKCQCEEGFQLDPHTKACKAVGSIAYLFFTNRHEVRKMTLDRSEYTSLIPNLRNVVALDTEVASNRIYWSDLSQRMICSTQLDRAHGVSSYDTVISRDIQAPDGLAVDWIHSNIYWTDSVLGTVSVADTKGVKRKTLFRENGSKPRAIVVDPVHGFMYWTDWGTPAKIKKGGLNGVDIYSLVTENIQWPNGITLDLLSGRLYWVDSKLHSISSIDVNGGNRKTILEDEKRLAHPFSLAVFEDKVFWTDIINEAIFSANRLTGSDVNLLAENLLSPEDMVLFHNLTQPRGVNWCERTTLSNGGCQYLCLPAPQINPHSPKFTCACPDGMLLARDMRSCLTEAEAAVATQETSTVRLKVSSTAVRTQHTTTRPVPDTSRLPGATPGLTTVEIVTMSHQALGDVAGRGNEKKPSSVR

B1: VSV G protein (Indiana strain) (natural protein)
chain: KFTIVFPHNQKGNWKNVPSNYHYCPSSSDLNWHNDLIGTAIQVKMPKSHKAIQADGWMCHASKWVTTCDFRWYGPKYITQSIRSFTPSVEQCKESIEQTKQGTWLNPGFPPQSCGYATVTDAEAVIVQVTPHHVLVDEYTGEWVDSQFINGKCSNYICPTVHNSTTWHSDYKVKGLCDSNLISMDITFFSEDGELSSLGKEGTGFRSNYFAYETGGKACKMQYCKHWGVRLPSGVWFEMADKDLFAAARFPECPEGSSISAPSQTSVDVSLIQDVERILDYSLCQETWSKIRAGLPISPVDLSYLAPKNPGTGPAFTIINGTLKYFETRYIRVDIAAPILSRMVGMISGTTTERELWDDWAPYEDVEIGPNGVLRTSSGYKFPLYMIGHGMLDSDLHLSSKAQVFEHPHIQDAASQLPDDESLFFGDTGLSKNPIELVEGWFSSWKSSIASFFFIIGLIIGLFLVLRVGIHLCIKLKHTKKRQIYTDIEMNRLGK
- Kd: 54.3 nM
